Reference: publication PMC2737688
Substitutions are numbered along the chain they refer to. In names and notes the source's numbering stands.

Columns and labels:
[1] = biological target: BK α subunit (mSlo1) pseudo-wild-type with N200C (S3-S4 loop) (mouse); experiment: cross-linking
[2] = biological target: BK α subunit (mSlo1) pseudo-wild-type with K296C (S6 flank) (mouse); experiment: cross-linking

B1: BK β4 subunit pseudo-wild-type with A43C (TM1 flank), 3X FLAG (natural protein)
chain: MAKLRVAYEYTEAEDKSIRLGLFLIISGVVSLFIFGFAWLSPCLQDLQATEANCTVLSVQQIGEVFECTFTCGADCRGTSQYPCVQVYVNNSESNSRALLHSDEHQLLTNPKCSYIPPCKRENQKNLESVMNWQQYWKDEIGSQPFTCYFNQHQRPDDVLLHRTHDEIVLLHAFLWPLVTFVVGVLIVVLTICAKSLAVKAEAMKKRKFS
extent of disulfide crosslinking [1]: 30%

B2: BK β4 subunit pseudo-wild-type with V169C (TM2 flank), 3X FLAG (natural protein)
chain: B1 chain with C43A, V169C
extent of disulfide crosslinking [2]: < 30%
